Data: the DeepSol protein solubility set

Assay: soluble on expression in E. coli; label from the status in PepcDB or PDB records

Soluble on expression in E. coli, not soluble:
MGCAQSTPVDQPARQQPQATQQKSVEPAVVKKPVEPARVEPKVEVPSTKPSEVPHVEKAQSINRGQPGDGSGPLQQPSPAMPGAKQGGTKERRAAAGSEAVRDQIRKLAVGGPQAKEEKEKIYEVSDSEDEELEDDPSERTTLSGDWYKPQEVTDAILEALKRNFVFKGIPQNHLVEVVGRMYGISFKSGAVVLQQGALPKQDDCMYYLQQGEAEVVISGGADASKNHGEERKVDGHTVRIPQKPGWLFGDVALLFHSPRTASVVAKTNITVWAMDRRTFLKFVMKHAQGARALRFLRKLPLLKGLSDNDLIRAASRMPQRMYEDGQPLIRIGERGDELFLIRYGKVRVFRPDGNGGRVEVAVLGRGQFVGERAVINDKLRSADCVAQGQVQVVVLKKREFMDLDNPLLAWMLDYDAVSAVIRSLPQFKGLKQEQMENILDRFDAREELMQGDTILNQGDMLEKLYVVKIGEIALFRNDERVEDPNFVHEIAGFSYFGETAITQTGKCPYTIRVASESLHLLSLPKRQVDSFMGRDTGLKNEEAVVAALKKSKFLANMTDPEFKELLKACEQTDYNPGEVIAVANSSVTNKIFLVKSGEVMVVAADLALPDTGEVDVRKLTGSERQRLLAGSIFNDKALNSPETASLEASLVAGTPCGIITFTTSDVERVMGGRAMSRSRNAMPGAAAAVEERKFPRVKFTELEFHRIIGTGQFGLVRVVRNIKTNEVYALKVMHKAPIVESKQIEHVINERKILEEACTHPFCVRLCGAYQDKASLYLLQEWVPGGELFHHLDVEGAFDEPTAMFYAANVLLALEFLHAKGIVYRDLKPENLLLDTQGYIKMADFGFAKYIGGDKTYTICGTPDYQAPEVIMRRGTTKAADYWALGVLIFEMLVGDPPFKSLTGDPWDTFRRTLSGRFYVPNFISDQAADLIFKLLQVNPDKRLGSDKRLGAEEIKRHRWFSRIDWRALEQKKLPSPFRPRVRNPLDTSNFDNFDNVDLEPPPVPADRAEKHSQQWELWDWIDDSK
MGDSAPARIDTLEIKLLFAGDIMTHGPQIESAKCEGGRVYDFSSSFDTLASRIGAADLAIGNLETTFAGAPYSGYPTFSSPDAMGEALKNAGFDVLTTANNHTADKGKKGIIRTLDMLDSLGIAHTGSYRDIFDRDKMTPLILEVKGVRIAILAYTYGTNGMPVPAPTWVDPIDTVMIKKDLLRADSLGADYRIVQIHWGIEYRKEPDSEQLELARKLHRYGADAIIGSHPHVVQGSQWLKSDSKTSFVIYSMGNFISNQRKPAATRGGMLLSLTLRKVGDRITTHPDYQYVFVNKRTPQGKRVYRLLPVDPFSSDTLPSLPPEEQRDYKEFAKYYQMIPLVLIEREDNRIRNRLQVSQRAFLEHHHHHH
MGEKEKEFAVIGLGRFGGSICRELAQLGMEVMAIDSDEDKINEFANIASHAVIADSTDEMVLKSLGIRNFDHVVVAIGDNLNSSILTTLILKELGVKNITVKAQNDYHEKVLSKIGADHIVHPERDMGKRIANNIASSNVLDYLELSDEHSIVEIIANKKIDGHSLIELDIRAKFGLNIVAIKRGKEVIVSPRATENIQAGDILIVIGHDDEVDRFKHFLR
MGEYERTVFTRRITGVETEYGITCVGDNSRRRLGADEAARYMFRPVVEEWGSSNVFIPNGARLYLDVGSHPEYASAECDSLSQLIAYDRAGDKIVDQLAQRAETALATEGIGGRVYLFKNNLDSLGNSYGCHENYLVSRDVVLKTLGRQLLPFLITRQLICGAGSIQDGQFQVSQRADHVWEGVSSATTRSRPIINTRDEPHADSHRFRRLHVIVGDSNMSETTCALKIGSTQLVLEMIEAGALSHDLELSNEIAAIREISRDITGMAPVPLKAGTSMPAIEIQRRYAEKALCWLEQRGDTEGTPNAEMHKVVSLWLDTISAIESNDLQALSRDIDWAIKLSLLRRAQRRIGCSESDFTHPKLAQLDLAYHDIRAGRGVFPVLESKQLVNRWINDTDIEQATRIAPSTTRAALRGEFLTAAKKLQAPISADWLRLKVNRPEPQIIELTDPFENTDDRVDQLISYMRNHAASYSTDTAIS
MGFTTVAKEEKVTKVAEVFHSVAAKYDIMNDLMSGGIHRLWKRFTIDCSGARPGQRILDLGGGTGDLTAKFSRIVGDQGHVVLADINNSMLNVGRDKLRDNGIVGNVHYVQANAEELPFPDDYFDVITISFCLRNVTDKDKALRSMFRVLKPGGRLLVLEFSKPVLEPLSKVYDAYSFHLLPKMGELVANDAESYRYLAESIRMHPDQETLEGMMQDAGFENTKYYNLTGGIVALHRGLEHHHHHH
